The values below come from patent US20050059597A1.

The target in the experiment is PSD-95, endogenous, in cultured cortical neurons (mouse) (UniProt Q62108). In words: cell-based or functional assay.
Sequence of PSD-95, endogenous, in cultured cortical neurons (mouse) (Q62108 whole entry): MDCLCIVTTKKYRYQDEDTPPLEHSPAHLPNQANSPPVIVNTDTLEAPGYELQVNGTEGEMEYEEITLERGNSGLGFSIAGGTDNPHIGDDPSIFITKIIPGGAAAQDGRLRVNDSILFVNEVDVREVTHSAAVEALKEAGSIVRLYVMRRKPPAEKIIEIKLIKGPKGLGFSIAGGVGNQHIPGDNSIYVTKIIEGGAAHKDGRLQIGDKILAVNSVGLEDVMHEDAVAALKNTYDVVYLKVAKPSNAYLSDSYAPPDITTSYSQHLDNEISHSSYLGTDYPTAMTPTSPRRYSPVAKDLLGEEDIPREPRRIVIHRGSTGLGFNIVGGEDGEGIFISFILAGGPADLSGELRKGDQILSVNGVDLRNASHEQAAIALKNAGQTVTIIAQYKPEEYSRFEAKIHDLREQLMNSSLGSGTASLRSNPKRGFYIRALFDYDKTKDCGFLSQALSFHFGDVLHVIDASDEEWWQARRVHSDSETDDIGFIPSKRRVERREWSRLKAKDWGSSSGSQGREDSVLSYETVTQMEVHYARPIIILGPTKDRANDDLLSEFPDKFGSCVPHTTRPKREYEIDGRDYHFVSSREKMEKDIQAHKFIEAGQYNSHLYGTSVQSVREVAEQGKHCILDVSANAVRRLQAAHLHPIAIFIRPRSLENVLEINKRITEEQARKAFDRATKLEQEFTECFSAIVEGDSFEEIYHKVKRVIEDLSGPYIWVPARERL

Tat-NR2B9c (peptide) had an NMDA-evoked cGMP production in cortical cultures (surrogate of NO production by nNOS) of 39.5%.
